Measurements as given in publication PMC10832047.

Target: HIV-1 capsid protein (CA), wild type (HIV-1 (NL4-3 / R9 clones))

owl-monkey TRIMCyp (natural protein)
TRIMCyp restriction assay: infectivity of control pseudoviruses with pure CA^WT cores in TZM-bl cells expressing TRIMCyp, 48 h (fold reduction in infection): 10
